Measurements: the supplement of paper PMC10567573

B1: ZNF232 (parent)
chain: GKAYGWCSELIRHRRVHARKEPSH
B2: TRIM9 (parent)
chain: PRNSCITCPQCHRSLILDDRGLRG

Variants of: B1
Experiment: protein stability index of a GFP-peptide fusion (GPS, HEK-293T) (PSI 1-6); higher = more stable
Conditions: c terminus: a fixed tail appended
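Note: lentivirally expressed fusions sorted by FACS into six bins by GFP to DsRed ratio, PSI derived from sequencing read proportions per bin multiplied by bin number.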

Protein stability index: each site, then its substitutions
Y4: L 2.76, G 3.77, D 4.04, R 3.6, N 3.83, C 2.2, M 3.07, E 3.62, P 4.12, A 3.54, W 2.62, V 3.04, S 4.18, H 3.63, T 3.19, F 2.84, Q 3.75, I 3.06, K 3.62
S8: R 2.99, Q 3.36, D 3.22, E 3.2, Y 2.34, C 2.14, M 1.94, V 2.02, F 1.97, A 2.67, L 2.45, H 2.69, K 2.6, P 3.21, W 1.97, T 3.25, I 1.57, N 3.21, G 2.5
C7: Q 3.18, A 3.3, S 3.82, H 3.37, R 3.59, M 2.62, T 3.26, V 2.06, P 3.61, I 2.17, F 2.42, W 3.05, L 2.34, N 4.19, Y 2.57, D 3.42, E 3.67, K 3.54, G 3.89
E9: I 2.51, C 1.76, G 3.03, A 2.74, F 1.59, H 3.25, D 3.12, K 2.96
G1: T 3.35, V 2.45, W 1.97, A 2.89, C 2.73, I 2.72, H 2.75, R 2.87, S 3.08, E 3.39, L 2.85, D 3.43, F 2.79, P 3.44, Q 3.28, M 2.55, N 3.14, Y 2.37, K 2.75
A3: I 2.35, G 3, V 2.97, Y 2.53, D 3.39, F 2.73, E 3.04, H 2.69, Q 2.95, W 2.48, K 3.1, N 3.12, C 2.89, S 3.46, R 2.92, L 2.29, T 3.02, P 2.81, M 2.77
G5: F 2.5, D 2.92, S 2.99, E 2.89, K 2.95, L 1.72, Y 2.13, T 2.79, W 2.14, C 1.59, I 2.29, N 3.56, P 3.25, H 3.04, Q 3.09, R 2.9, M 2.94, A 3.55, V 2.22
W6: S 3.65, E 3.35, F 3.65, D 4.05, V 3.59, A 3.49, I 3.27, L 2.95, C 2.6, N 3.98, R 3.7, P 4.61, G 3.96, K 4.02, Y 2.95, H 3.67, M 3.82, Q 3.81, T 3.69
K2: N 2.62, I 2.72, W 1.85, S 2.84, T 3.12, R 2.79, C 2.41, M 2.55, V 2.79, F 2.62, G 3.54, P 3.44, L 2.61, Y 3.5, A 3.3, D 3.2, E 2.82, H 3.01, Q 3.26

Variants of: B2
Experiment: as above
Conditions: c terminus: a fixed tail appended

Protein stability index, by site and new letter:
S4: A 2, L 2.37, D 2.29, V 2.27, F 2.31, E 2.2, K 1.65, G 1.76, W 1.71
R13: S 2.9, Y 2.53, W 2.42, D 3.33, L 1.57, E 2.61, H 2.59
C8: W 2.89, Y 2.54, R 2.47, E 3.18, M 2.62, P 3.14, D 2.24, I 2.38, G 2.34, K 2.4
L17: H 2.74, N 1.79, D 2.48, R 2.48, C 2.51, Q 2.25
I6: N 2.29, S 2.02, M 2.08, P 2.6, A 1.48, C 2.26
G21: D 2.07, V 1.78, I 1.47, C 2.52, L 2.09, S 1.71, A 1.93, W 2.06, N 2.17
D19: V 1.4, Y 1.7, T 2.42, I 1.75, E 1.82, W 1.52, N 1.93
C5: S 2.42, L 2.29, K 1.71, F 2.08, E 2.67, A 1.67, Y 1.87, D 2.11
T7: W 2, F 1.84, V 3.1, H 3.11, D 1.81, Y 2.33, G 2.4
Q10: R 2.36, Y 3.29, A 2.37, I 2.05, F 3
L22: N 2.34, Q 3.69, W 2.54, R 2.84, S 2.62, C 2.32, Y 2.54, F 1.91
R2: E 2.71, Y 3.02, L 2.24, V 1.92, F 1.89, H 2.29, Q 2.52, C 1.74
I16: A 1.94, H 1.97, L 2.38, K 2.68, T 1.99, R 2.13
P9: Y 3.11, A 2.5, V 2.67, W 3.5, E 1
H12: S 2.04, Y 2.46, W 2.07, P 2.52, Q 1.96, C 1.6, M 2.78, D 2.28, V 3.37, A 2.53
C11: Q 2.16, T 2.78, H 2.51, R 2.71, V 2.2
R23: S 2.1, Q 2.41, I 2.08, G 2.48, L 2.48, F 2.75, A 2.5
S14: W 1.68, K 2.7, G 1.26, H 2.25, N 1.9, R 2.4, C 2.92, A 2.18, P 2.52
R20: K 1.98, M 2.21, G 2.19, Y 2.35, F 1.69, H 1.62
N3: K 1.94, Y 1.85, F 1.96, P 1.49, L 2.52, I 1.92, T 1.78
P1: N 2.16, V 2.46, S 2.61, Q 1.83, K 2.48, T 1.97, L 2.29, D 2.4
L15: I 1.68, S 2.19, E 2.19, P 2.77, W 2.48, A 1.92, N 1.98, Y 2.79, T 2.59, Q 2.79, H 2.45
D18: T 2.24, N 1.7, K 2.24, F 1.92, C 2.05
G24: W 1.76, R 1.22, V 2.32, L 1.81, A 2.13
